Publication PMC6727212 (ACS Chemical Neuroscience, 2019)
Changes are numbered by the printed parent chain. In names and notes the source's numbering stands. Several values for one entry are separate records, joined by “and”; a condition that tells them apart may be missing. Equal entries are not always repeated.

B1: human stefin B P74S (natural protein, UniProt P04080 1-98, looked up)
chain: MMSGAPSATQPATAETQHIADQVRSQLEEKENKKFPVFKAVSFKSQVVAGTNYFIKVHVGDEDFVHLRVFQSLSHENKPLTLSNYQTNKAKHDELTYF
B2: recombinant human stefin B wild-type (C3S) (natural protein, UniProt P04080 1-98, looked up)
chain: B1 chain with S74P
B3: human stefin B P6L P74S (natural protein, UniProt P04080 1-98, looked up)
chain: B1 chain with P6L
B4: human stefin B P11S P74S (natural protein, UniProt P04080 1-98, looked up)
chain: B1 chain with P11S
B5: human stefin B P79S (natural protein, UniProt P04080 1-98, looked up)
chain: B1 chain with S74P, P79S
B6: human stefin B P74S P79S (natural protein, UniProt P04080 1-98, looked up)
chain: B1 chain with P79S
B7: human stefin B P11S (natural protein, UniProt P04080 1-98, looked up)
chain: B1 chain with P11S, S74P
B8: human stefin B P6L (natural protein, UniProt P04080 1-98, looked up)
chain: B1 chain with P6L, S74P
B9: human stefin B P36D (natural protein, UniProt P04080 1-98, looked up)
chain: B1 chain with P36D, S74P

Target: the molecule itself
Assay: SEC; Superdex 75 (10 x 300 mm) on FPLC, room temperature, 0.5 mL/min, 500 uL of about 1 mg/mL protein; 10 mM phosphate, 0.15 M NaCl, pH 7.5 (legend and results; the methods say pH 7.0); equilibrium oligomeric state, stB wt as standard

**Q.** Does B1 bind?
**A.** Result: binds

Target: the molecule itself
Assay: as above
Remark: another data set of the same source

**Q.** B2 was tested. Which “stoichiometry N” value did it give?
**A.** Its value is 2.

**Q.** For B3, which “stoichiometry N” value is on record?
**A.** The value was 2.

**Q.** How did the “stoichiometry N” value turn out when B4 was run?
**A.** The value was 2.

**Q.** B5 was tested. Which “stoichiometry N” value did it give?
**A.** Its value is 2 and 4.

**Q.** For B6, which “stoichiometry N” value is on record?
**A.** The value was 2.

**Q.** Does B7 bind?
**A.** Result: binds

**Q.** Does B8 bind?
**A.** Result: binds

**Q.** Does B9 bind?
**A.** Result: binds
